B1: PTPN9 (parent)
chain: ILFSLPPALDWDSVHVPGPHAMTI

Variants of: B1
Test: protein stability index of a GFP-peptide fusion (GPS, HEK-293T) (PSI 1-6); higher = more stable
Details: c terminus: a fixed tail appended
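Note: lentivirally expressed fusions sorted by FACS into six bins by GFP to DsRed ratio, PSI derived from sequencing read proportions per bin multiplied by bin number.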

| Variant | protein stability index |
| --- | --- |
| ILFSLPPALDWDSVHVPGKHAMTI | 2.02 |
| ILFSLPPALDWDSVHVPGLHAMTI | 2.44 |
| ILFSLPPALDWDSVHVPGMHAMTI | 2.77 |
| ILFSLPPALDWDSVHVPGNHAMTI | 2.89 |
| ILFSLPPALDWDSVHVPGQHAMTI | 2.55 |
| ILFSLPPALDWDSVHVPGRHAMTI | 2.65 |
| ILFSLPPALDWDSVHVPGSHAMTI | 2.48 |
| ILFSLPPALDWDSVHVPGTHAMTI | 1.89 |
| ILFSLPPALDWDSVHVPGVHAMTI | 3.51 |
| ILFSLPPALDWDSVHVPGWHAMTI | 2.19 |
| ILFSLPPALDWDSVHVPGYHAMTI | 3.1 |
| ILFSLPPALDWDSVHVPGPAAMTI | 2.01 |
| ILFSLPPALDWDSVHVPGPCAMTI | 2.58 |
| ILFSLPPALDWDSVHVPGPDAMTI | 2.29 |
| ILFSLPPALDWDSVHVPGPEAMTI | 1.59 |
| ILFSLPPALDWDSVHVPGPFAMTI | 3.16 |
| ILFSLPPALDWDSVHVPGPGAMTI | 2.69 |
| ILFSLPPALDWDSVHVPGPIAMTI | 2.93 |
| ILFSLPPALDWDSVHVPGPKAMTI | 2.76 |
| ILFSLPPALDWDSVHVPGPLAMTI | 2.79 |
| ILFSLPPALDWDSVHVPGPMAMTI | 2.88 |
| ILFSLPPALDWDSVHVPGPNAMTI | 2.59 |
| ILFSLPPALDWDSVHVPGPPAMTI | 1.82 |
| ILFSLPPALDWDSVHVPGPQAMTI | 2.31 |

| Variant | protein stability index |
| --- | --- |
| ILFSLPPALDWDSVHVPGPRAMTI | 2.12 |
| ILFSLPPALDWDSVHVPGPSAMTI | 2.48 |
| ILFSLPPALDWDSVHVPGPTAMTI | 2.16 |
| ILFSLPPALDWDSVHVPGPYAMTI | 3.11 |
| ILFSLPPALDWDSVHVPGPHCMTI | 3.09 |
| ILFSLPPALDWDSVHVPGPHDMTI | 2.71 |
| ILFSLPPALDWDSVHVPGPHEMTI | 2.64 |
| ILFSLPPALDWDSVHVPGPHGMTI | 2.96 |
| ILFSLPPALDWDSVHVPGPHHMTI | 2.88 |
| ILFSLPPALDWDSVHVPGPHIMTI | 3.19 |
| ILFSLPPALDWDSVHVPGPHKMTI | 3.13 |
| ILFSLPPALDWDSVHVPGPHLMTI | 2.86 |
| ILFSLPPALDWDSVHVPGPHMMTI | 2.59 |
| ILFSLPPALDWDSVHVPGPHNMTI | 1.75 |
| ILFSLPPALDWDSVHVPGPHPMTI | 2.84 |
| ILFSLPPALDWDSVHVPGPHQMTI | 2.63 |
| ILFSLPPALDWDSVHVPGPHRMTI | 1.86 |
| ILFSLPPALDWDSVHVPGPHSMTI | 3.61 |
| ILFSLPPALDWDSVHVPGPHTMTI | 2.35 |
| ILFSLPPALDWDSVHVPGPHVMTI | 4.21 |
| ILFSLPPALDWDSVHVPGPHWMTI | 1.23 |
| ILFSLPPALDWDSVHVPGPHYMTI | 3.24 |
| ILFSLPPALDWDSVHVPGPHAATI | 2.35 |
| ILFSLPPALDWDSVHVPGPHADTI | 1.91 |

| Variant | protein stability index |
| --- | --- |
| ILFSLPPALDWDSVHVPGPHAETI | 2.55 |
| ILFSLPPALDWDSVHVPGPHAFTI | 1.73 |
| ILFSLPPALDWDSVHVPGPHAGTI | 1.67 |
| ILFSLPPALDWDSVHVPGPHAHTI | 1.24 |
| ILFSLPPALDWDSVHVPGPHAITI | 2.93 |
| ILFSLPPALDWDSVHVPGPHAKTI | 1.39 |
| ILFSLPPALDWDSVHVPGPHALTI | 2.77 |
| ILFSLPPALDWDSVHVPGPHANTI | 1.39 |
| ILFSLPPALDWDSVHVPGPHAPTI | 1.77 |
| ILFSLPPALDWDSVHVPGPHAQTI | 2.04 |
| ILFSLPPALDWDSVHVPGPHARTI | 1.86 |
| ILFSLPPALDWDSVHVPGPHASTI | 1.82 |
| ILFSLPPALDWDSVHVPGPHATTI | 1.75 |
| ILFSLPPALDWDSVHVPGPHAVTI | 2.64 |
| ILFSLPPALDWDSVHVPGPHAWTI | 3.35 |
| ILFSLPPALDWDSVHVPGPHAMAI | 1.49 |
| ILFSLPPALDWDSVHVPGPHAMCI | 3.21 |
| ILFSLPPALDWDSVHVPGPHAMDI | 2.6 |
| ILFSLPPALDWDSVHVPGPHAMEI | 2.33 |
| ILFSLPPALDWDSVHVPGPHAMFI | 2.25 |
| ILFSLPPALDWDSVHVPGPHAMGI | 3.89 |
| ILFSLPPALDWDSVHVPGPHAMHI | 1.88 |
| ILFSLPPALDWDSVHVPGPHAMII | 2.96 |
| ILFSLPPALDWDSVHVPGPHAMKI | 2.87 |

| Variant | protein stability index |
| --- | --- |
| ILFSLPPALDWDSVHVPGPHAMLI | 1.76 |
| ILFSLPPALDWDSVHVPGPHAMMI | 4.43 |
| ILFSLPPALDWDSVHVPGPHAMNI | 3.27 |
| ILFSLPPALDWDSVHVPGPHAMPI | 1.2 |
| ILFSLPPALDWDSVHVPGPHAMQI | 2.73 |
| ILFSLPPALDWDSVHVPGPHAMRI | 3.03 |
| ILFSLPPALDWDSVHVPGPHAMSI | 2.4 |
| ILFSLPPALDWDSVHVPGPHAMVI | 4.05 |
| ILFSLPPALDWDSVHVPGPHAMWI | 2.7 |
| ILFSLPPALDWDSVHVPGPHAMYI | 2.69 |
| ILFSLPPALDWDSVHVPGPHAMTA | 1.55 |
| ILFSLPPALDWDSVHVPGPHAMTC | 2.43 |
| ILFSLPPALDWDSVHVPGPHAMTD | 1.83 |
| ILFSLPPALDWDSVHVPGPHAMTE | 1.69 |
| ILFSLPPALDWDSVHVPGPHAMTF | 3.71 |
| ILFSLPPALDWDSVHVPGPHAMTG | 2.29 |
| ILFSLPPALDWDSVHVPGPHAMTH | 1.63 |
| ILFSLPPALDWDSVHVPGPHAMTK | 2.06 |
| ILFSLPPALDWDSVHVPGPHAMTL | 1.99 |
| ILFSLPPALDWDSVHVPGPHAMTM | 2.69 |
| ILFSLPPALDWDSVHVPGPHAMTN | 1.71 |
| ILFSLPPALDWDSVHVPGPHAMTP | 1.85 |

From the supplement of paper PMC10567573
